Data from article PMC10663500, “High-throughput analysis system of interaction kinetics for data-driven antibody design” (Scientific Reports, 2023).

What was measured:
[1] = molecular target: T1, human programmed cell death protein 1 (hPD-1) C93S (aa 24-167) (Homo sapiens, UniProt Q15116, C93S); test: SPR; Carterra LSA; Fab from the ammonium sulfate precipitate of the culture supernatant immobilised on a NiHC200M chip; hPD-1 (1-1024 nM) or mPD-1-Fc (4-1024 nM) as analyte, fourfold dilution series, no regeneration; HBS-EP pH 7.4, 25 °C; medians over the spots of a construct, KD = koff/kon; details: one partner purified
T1 construct: made as a fusion with a TEV site and human Fc; the Fc was cut off with TEV protease; source: Expi293F, purified (Protein A, TEV cleavage of Fc, SEC; monomer fractions); not shown: Fc (human), C-terminal, cleaved
Outline: (§1)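 Fabs from Brevibacillus culture supernatants were ammonium sulfate-precipitated, redissolved in HBS-EP and captured in duplicate on a NiHC200M chip (Carterra LSA, 25 °C). Human PD-1 (1–1024 nM) or mouse PD-1-Fc (4–1024 nM) flowed as fourfold series without regeneration, with 10 min association and 5 min dissociation; unconfirmed binders were set to kon 10^3 […], koff 10^−2 s^−1. Rates came from kdka model fits (slow- or fast-dissociation settings, best fit); KD is koff/kon from per-construct medians.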

[2] = molecular target: T2, mouse programmed cell death protein 1 Fc fusion protein (mPD-1-Fc), mPD-1 C60S (aa 25-167) (Mus musculus, UniProt Q02242, stabilised); test: as above; details: one partner purified
T2 construct: not cleaved; source: Expi293F, purified (Protein A, SEC; dimeric fraction); not shown: Fc (human), C-terminal, kept
Outline: as §1

T1 sequence (Q15116 24-167 C93S): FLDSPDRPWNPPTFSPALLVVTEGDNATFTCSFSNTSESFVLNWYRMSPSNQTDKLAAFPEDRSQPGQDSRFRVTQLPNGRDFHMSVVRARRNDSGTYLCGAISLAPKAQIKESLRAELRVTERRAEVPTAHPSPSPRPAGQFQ

B1: toripalimab Fab L.P100I (Fab, V domains shown)
VH: QGQLVQSGAEVKKPGASVKVSCKASGYTFTDYEMHWVRQAPIHGLEWIGVIESETGGTAYNQKFKGRVTITADKSTSTAYMELSSLRSEDTAVYYCAREGITTVATTYYWYFDVWGQGTTVTVSS
VL: DVVMTQSPLSLPVTLGQPASISCRSSQSIVHSNGNTYLEWYLQKPGQSPQLLIYKVSNRFSGVPDRFSGSGSGTDFTLKISRVEAEDVGVYYCFQGSHVILTFGQGTKLEIK
notes: as the heavy chain of Sm3; light chain of Sm3 with this change; numbers count from the chain's first residue; source: Brevibacillus, culture supernatant (ammonium sulfate precipitate); not shown: 6xHis, C-terminal, kept; 6xHN, C-terminal, kept
Kd [1]: 12.3 nM
koff [1]: 8.88e-05 s⁻¹
kon [1]: 7200 M⁻¹ s⁻¹
Kd [2]: 23.2 nM
koff [2]: 0.000324 s⁻¹
kon [2]: 13900 M⁻¹ s⁻¹

B2: toripalimab Fab L.P100K (Fab, V domains shown)
VH: QGQLVQSGAEVKKPGASVKVSCKASGYTFTDYEMHWVRQAPIHGLEWIGVIESETGGTAYNQKFKGRVTITADKSTSTAYMELSSLRSEDTAVYYCAREGITTVATTYYWYFDVWGQGTTVTVSS
VL: DVVMTQSPLSLPVTLGQPASISCRSSQSIVHSNGNTYLEWYLQKPGQSPQLLIYKVSNRFSGVPDRFSGSGSGTDFTLKISRVEAEDVGVYYCFQGSHVKLTFGQGTKLEIK
notes: as for B1
Kd [1]: 7.78 nM
koff [1]: 5.19e-05 s⁻¹
kon [1]: 6670 M⁻¹ s⁻¹
Kd [2]: 60.6 nM
koff [2]: 0.000824 s⁻¹
kon [2]: 13600 M⁻¹ s⁻¹

B3: toripalimab Fab L.P100L (Fab, V domains shown)
VH: QGQLVQSGAEVKKPGASVKVSCKASGYTFTDYEMHWVRQAPIHGLEWIGVIESETGGTAYNQKFKGRVTITADKSTSTAYMELSSLRSEDTAVYYCAREGITTVATTYYWYFDVWGQGTTVTVSS
VL: DVVMTQSPLSLPVTLGQPASISCRSSQSIVHSNGNTYLEWYLQKPGQSPQLLIYKVSNRFSGVPDRFSGSGSGTDFTLKISRVEAEDVGVYYCFQGSHVLLTFGQGTKLEIK
notes: as for B1
Kd [1]: 13.8 nM
koff [1]: 0.000129 s⁻¹
kon [1]: 9280 M⁻¹ s⁻¹
Kd [2]: 9.99 nM
koff [2]: 0.000147 s⁻¹
kon [2]: 14700 M⁻¹ s⁻¹

B4: toripalimab Fab H.S53A (Fab, V domains shown)
VH: QGQLVQSGAEVKKPGASVKVSCKASGYTFTDYEMHWVRQAPIHGLEWIGVIEAETGGTAYNQKFKGRVTITADKSTSTAYMELSSLRSEDTAVYYCAREGITTVATTYYWYFDVWGQGTTVTVSS
VL: DVVMTQSPLSLPVTLGQPASISCRSSQSIVHSNGNTYLEWYLQKPGQSPQLLIYKVSNRFSGVPDRFSGSGSGTDFTLKISRVEAEDVGVYYCFQGSHVPLTFGQGTKLEIK
notes: heavy chain of Sm3 with this change; numbers count from the chain's first residue; as the light chain of Sm3; source: Brevibacillus, culture supernatant (ammonium sulfate precipitate); not shown: 6xHis, C-terminal, kept; 6xHN, C-terminal, kept
Kd [1]: < 1.27 nM
koff [1]: < 1e-05 s⁻¹
kon [1]: 7880 M⁻¹ s⁻¹
Kd [2]: 94 nM
koff [2]: 0.00411 s⁻¹
kon [2]: 43700 M⁻¹ s⁻¹

B5: toripalimab Fab L.P100M (Fab, V domains shown)
VH: QGQLVQSGAEVKKPGASVKVSCKASGYTFTDYEMHWVRQAPIHGLEWIGVIESETGGTAYNQKFKGRVTITADKSTSTAYMELSSLRSEDTAVYYCAREGITTVATTYYWYFDVWGQGTTVTVSS
VL: DVVMTQSPLSLPVTLGQPASISCRSSQSIVHSNGNTYLEWYLQKPGQSPQLLIYKVSNRFSGVPDRFSGSGSGTDFTLKISRVEAEDVGVYYCFQGSHVMLTFGQGTKLEIK
notes: as for B1
Kd [1]: 3.81 nM
koff [1]: 5.38e-05 s⁻¹
kon [1]: 14100 M⁻¹ s⁻¹
Kd [2]: 8.48 nM
koff [2]: 0.000121 s⁻¹
kon [2]: 14200 M⁻¹ s⁻¹

B6: toripalimab Fab L.P100N (Fab, V domains shown)
VH: QGQLVQSGAEVKKPGASVKVSCKASGYTFTDYEMHWVRQAPIHGLEWIGVIESETGGTAYNQKFKGRVTITADKSTSTAYMELSSLRSEDTAVYYCAREGITTVATTYYWYFDVWGQGTTVTVSS
VL: DVVMTQSPLSLPVTLGQPASISCRSSQSIVHSNGNTYLEWYLQKPGQSPQLLIYKVSNRFSGVPDRFSGSGSGTDFTLKISRVEAEDVGVYYCFQGSHVNLTFGQGTKLEIK
notes: as for B1
Kd [1]: 1.39 nM
koff [1]: 2.33e-05 s⁻¹
kon [1]: 16800 M⁻¹ s⁻¹
Kd [2]: 15.9 nM
koff [2]: 0.0003 s⁻¹
kon [2]: 18900 M⁻¹ s⁻¹

B7: toripalimab Fab L.P100Q (Fab, V domains shown)
VH: QGQLVQSGAEVKKPGASVKVSCKASGYTFTDYEMHWVRQAPIHGLEWIGVIESETGGTAYNQKFKGRVTITADKSTSTAYMELSSLRSEDTAVYYCAREGITTVATTYYWYFDVWGQGTTVTVSS
VL: DVVMTQSPLSLPVTLGQPASISCRSSQSIVHSNGNTYLEWYLQKPGQSPQLLIYKVSNRFSGVPDRFSGSGSGTDFTLKISRVEAEDVGVYYCFQGSHVQLTFGQGTKLEIK
notes: as for B1
Kd [1]: 9.25 nM
koff [1]: 7.95e-05 s⁻¹
kon [1]: 8600 M⁻¹ s⁻¹
Kd [2]: 8.31 nM
koff [2]: 9.77e-05 s⁻¹
kon [2]: 11800 M⁻¹ s⁻¹

B8: toripalimab Fab L.P100R (Fab, V domains shown)
VH: QGQLVQSGAEVKKPGASVKVSCKASGYTFTDYEMHWVRQAPIHGLEWIGVIESETGGTAYNQKFKGRVTITADKSTSTAYMELSSLRSEDTAVYYCAREGITTVATTYYWYFDVWGQGTTVTVSS
VL: DVVMTQSPLSLPVTLGQPASISCRSSQSIVHSNGNTYLEWYLQKPGQSPQLLIYKVSNRFSGVPDRFSGSGSGTDFTLKISRVEAEDVGVYYCFQGSHVRLTFGQGTKLEIK
notes: as for B1
Kd [1]: 2.13 nM
koff [1]: 1.32e-05 s⁻¹
kon [1]: 6230 M⁻¹ s⁻¹
Kd [2]: 24.7 nM
koff [2]: 0.000274 s⁻¹
kon [2]: 11100 M⁻¹ s⁻¹

B9: toripalimab Fab L.P100S (Fab, V domains shown)
VH: QGQLVQSGAEVKKPGASVKVSCKASGYTFTDYEMHWVRQAPIHGLEWIGVIESETGGTAYNQKFKGRVTITADKSTSTAYMELSSLRSEDTAVYYCAREGITTVATTYYWYFDVWGQGTTVTVSS
VL: DVVMTQSPLSLPVTLGQPASISCRSSQSIVHSNGNTYLEWYLQKPGQSPQLLIYKVSNRFSGVPDRFSGSGSGTDFTLKISRVEAEDVGVYYCFQGSHVSLTFGQGTKLEIK
notes: as for B1
Kd [1]: < 1.59 nM
koff [1]: < 1e-05 s⁻¹
kon [1]: 6280 M⁻¹ s⁻¹
Kd [2]: 45.9 nM
koff [2]: 0.00105 s⁻¹
kon [2]: 22900 M⁻¹ s⁻¹

B10: toripalimab Fab L.P100T (Fab, V domains shown)
VH: QGQLVQSGAEVKKPGASVKVSCKASGYTFTDYEMHWVRQAPIHGLEWIGVIESETGGTAYNQKFKGRVTITADKSTSTAYMELSSLRSEDTAVYYCAREGITTVATTYYWYFDVWGQGTTVTVSS
VL: DVVMTQSPLSLPVTLGQPASISCRSSQSIVHSNGNTYLEWYLQKPGQSPQLLIYKVSNRFSGVPDRFSGSGSGTDFTLKISRVEAEDVGVYYCFQGSHVTLTFGQGTKLEIK
notes: as for B1
Kd [1]: 1.24 nM
koff [1]: 1.18e-05 s⁻¹
kon [1]: 9480 M⁻¹ s⁻¹
Kd [2]: 19.4 nM
koff [2]: 0.000259 s⁻¹
kon [2]: 13400 M⁻¹ s⁻¹

B11: toripalimab Fab L.P100V (Fab, V domains shown)
VH: QGQLVQSGAEVKKPGASVKVSCKASGYTFTDYEMHWVRQAPIHGLEWIGVIESETGGTAYNQKFKGRVTITADKSTSTAYMELSSLRSEDTAVYYCAREGITTVATTYYWYFDVWGQGTTVTVSS
VL: DVVMTQSPLSLPVTLGQPASISCRSSQSIVHSNGNTYLEWYLQKPGQSPQLLIYKVSNRFSGVPDRFSGSGSGTDFTLKISRVEAEDVGVYYCFQGSHVVLTFGQGTKLEIK
notes: as for B1
Kd [1]: 7.83 nM
koff [1]: 6.3e-05 s⁻¹
kon [1]: 8040 M⁻¹ s⁻¹
Kd [2]: 30.1 nM
koff [2]: 0.000479 s⁻¹
kon [2]: 15900 M⁻¹ s⁻¹

B12: toripalimab Fab L.P100W (Fab, V domains shown)
VH: QGQLVQSGAEVKKPGASVKVSCKASGYTFTDYEMHWVRQAPIHGLEWIGVIESETGGTAYNQKFKGRVTITADKSTSTAYMELSSLRSEDTAVYYCAREGITTVATTYYWYFDVWGQGTTVTVSS
VL: DVVMTQSPLSLPVTLGQPASISCRSSQSIVHSNGNTYLEWYLQKPGQSPQLLIYKVSNRFSGVPDRFSGSGSGTDFTLKISRVEAEDVGVYYCFQGSHVWLTFGQGTKLEIK
notes: as for B1
Kd [1]: < 1.54 nM
koff [1]: < 1e-05 s⁻¹
kon [1]: 6510 M⁻¹ s⁻¹
Kd [2]: 3.6 nM
koff [2]: 3.39e-05 s⁻¹
kon [2]: 9410 M⁻¹ s⁻¹

B13: toripalimab Fab L.P100Y (Fab, V domains shown)
VH: QGQLVQSGAEVKKPGASVKVSCKASGYTFTDYEMHWVRQAPIHGLEWIGVIESETGGTAYNQKFKGRVTITADKSTSTAYMELSSLRSEDTAVYYCAREGITTVATTYYWYFDVWGQGTTVTVSS
VL: DVVMTQSPLSLPVTLGQPASISCRSSQSIVHSNGNTYLEWYLQKPGQSPQLLIYKVSNRFSGVPDRFSGSGSGTDFTLKISRVEAEDVGVYYCFQGSHVYLTFGQGTKLEIK
notes: as for B1
Kd [1]: < 0.355 nM
koff [1]: < 1e-05 s⁻¹
kon [1]: 28200 M⁻¹ s⁻¹
Kd [2]: 1.79 nM
koff [2]: 3.62e-05 s⁻¹
kon [2]: 20200 M⁻¹ s⁻¹

B14: toripalimab Fab L.L101A (Fab, V domains shown)
VH: QGQLVQSGAEVKKPGASVKVSCKASGYTFTDYEMHWVRQAPIHGLEWIGVIESETGGTAYNQKFKGRVTITADKSTSTAYMELSSLRSEDTAVYYCAREGITTVATTYYWYFDVWGQGTTVTVSS
VL: DVVMTQSPLSLPVTLGQPASISCRSSQSIVHSNGNTYLEWYLQKPGQSPQLLIYKVSNRFSGVPDRFSGSGSGTDFTLKISRVEAEDVGVYYCFQGSHVPATFGQGTKLEIK
notes: as for B1
Kd [1]: < 1.61 nM
koff [1]: < 1e-05 s⁻¹
kon [1]: 6210 M⁻¹ s⁻¹
Kd [2]: 26.6 nM
koff [2]: 0.000225 s⁻¹
kon [2]: 8470 M⁻¹ s⁻¹

B15: toripalimab Fab H.S53Y (Fab, V domains shown)
VH: QGQLVQSGAEVKKPGASVKVSCKASGYTFTDYEMHWVRQAPIHGLEWIGVIEYETGGTAYNQKFKGRVTITADKSTSTAYMELSSLRSEDTAVYYCAREGITTVATTYYWYFDVWGQGTTVTVSS
VL: DVVMTQSPLSLPVTLGQPASISCRSSQSIVHSNGNTYLEWYLQKPGQSPQLLIYKVSNRFSGVPDRFSGSGSGTDFTLKISRVEAEDVGVYYCFQGSHVPLTFGQGTKLEIK
notes: as for B4
Kd [1]: < 1.18 nM
koff [1]: < 1e-05 s⁻¹
kon [1]: 8440 M⁻¹ s⁻¹
Kd [2]: 187 nM
koff [2]: 0.00628 s⁻¹
kon [2]: 33500 M⁻¹ s⁻¹
